Source: publication PMC9245660 (Proceedings of the National Academy of Sciences of the …, 2022)

Target: Tom22-T1′ (Tom22 without helix H1) (human) (UniProt Q9NS69)
Assay: pull-down

Su9-TEV-DHFR-EGFP-Strep
decrease in the binding ability against Tom22 before cleavage: 75%
